Measured values: paper PMC8583712, “p53 Transactivation Domain Mediates Binding and Phase Separation with Poly-PR/GR” (International Journal of Molecular Sciences, 2021)
Where no end group is shown, it is not given here. The star is where a group is joined. FITC = O=C1OC2(c3ccc(O)cc3Oc3cc(O)ccc32)c2ccc(NC(=S)*)cc21

B1: N-terminally fluorescein isothiocyanate (FITC)-labelled PR25 (peptide)
peptide: {FITC}-PRPRPRPRPRPRPRPRPRPRPRPRPRPRPRPRPRPRPRPRPRPRPRPRPR
notes: C9orf72 repeat-derived dipeptide repeat; also called FITC-labeled PR25; FITC-PR25; source: synthetic peptide (Peptide Specialty Laboratories GmbH, HPLC-purified)
B2: N-terminally fluorescein isothiocyanate (FITC)-labelled GR25 (peptide)
peptide: {FITC}-GRGRGRGRGRGRGRGRGRGRGRGRGRGRGRGRGRGRGRGRGRGRGRGRGR
notes: C9orf72 repeat-derived dipeptide repeat; also called FITC-labeled GR25; FITC-GR25; source: synthetic peptide (Peptide Specialty Laboratories GmbH, HPLC-purified)

What was measured:
[1] = target: T1, p53^TAD2 (Homo sapiens, UniProt P04637); test: Fluorescence polarization, FITC-labeled PR25/GR25 with p53^TAD2; assay type: binding; details: 100 nM FITC-labelled (N-terminal) peptide, 20 mM Hepes pH 7.0, 50 mM NaCl, 2 mM TCEP, 0.04% NaN3, room temperature, 35 µL, λex 495/λem 530 nm; 1:1 complex; mean of three experiments, errors = SD of the fit; read-out: equilibrium dissociation constant (Kd), p53^TAD2
T1 construct: amino acids 37 to 57 (p53 ^TAD2); ZZ-His6 (cleaved yes); made in house; host or cells: E. coli BL21-DE3 Star
Excerpt: Measurements were taken at room temperature in black 384-well plates using a ClarioStar Plus (BMG labtech, Ortenberg, Germany) spectrophotometer. Filters were selected as a function of FITC optical characteristics (λex= 495 nm, and λem= 530 nm). […] The polarization data were fitted using graphpad prism 8 with the following equation:(3) P=P0+Pmax×L/L + Kd
Here, P0 represents the polarization of FITC-labelled peptides in absence of p53^1−94 and p53^TAD2, and Pmax to the highest polarization of the binding curve corresponding to the saturation of the interaction. L corresponds to the concentration of p53^1–94 and p53^TAD2 proteins, and Kd is the dissociation constant.

[2] = target: T2, p53^1-94 (human p53 residues 1 to 94: transactivation domains 1 and 2 and poly-proline region) (human, UniProt P04637 1-94); test: fluorescence polarisation; 100 nM FITC-labelled PR25/GR25 with increasing concentrations of p53 1-94 or p53 TAD2; room temperature; 20 mM Hepes pH 7.0, 50 mM NaCl, 2 mM TCEP, 0.04% NaN3; fit assuming a 1:1 complex; details: both partners purified
T2 construct: human p53, amino acids 1 to 94; 15N- or 13C,15N-labelled for NMR, unlabelled for fluorescence polarisation; also called N-terminal disordered region; source: E. coli BL21-DE3 Star, purified (lysis in 6 M urea, Ni-NTA, TEV cleavage, second Ni-NTA, SEC on Superdex 75 Increase)

[3] = target: B2; test: as above; details: both partners purified
[4] = target: B1; test: as above; details: both partners purified

T2 sequence (P04637 1-94): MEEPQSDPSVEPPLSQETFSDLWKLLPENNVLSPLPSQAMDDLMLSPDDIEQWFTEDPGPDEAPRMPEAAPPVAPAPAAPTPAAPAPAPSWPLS

Row | Molecule | Kd [1] [µM] | Kd [2] [nM] | also measured
1 | N=C(N)NCCC[C@H](NC(=O)CNC(=O)[C@H](CCCNC(=N)N)NC(=O)CNC(=O)[C@H](CCCNC(=N)N)NC(=O)CNC(=O)[C@H](CCCNC(=N)N)NC(=O)CNC(=O)[C@H](CCCNC(=N)N)NC(=O)CNC(=O)[C@H](CCCNC(=N)N)NC(=O)CNC(=O)[C@H](CCCNC(=N)N)NC(=O)CNC(=O)[C@H](CCCNC(=N)N)NC(=O)CNC(=O)[C@H](CCCNC(=N)N)NC(=O)CNC(=O)[C@H](CCCNC(=N)N)NC(=O)CNC(=O)[C@H](CCCNC(=N)N)NC(=O)CNC(=O)[C@H](CCCNC(=N)N)NC(=O)CNC(=O)[C@H](CCCNC(=N)N)NC(=O)CNC(=O)[C@H](CCCNC(=N)N)NC(=O)CNC(=O)[C@H](CCCNC(=N)N)NC(=O)CNC(=O)[C@H](CCCNC(=N)N)NC(=O)CNC(=O)[C@H](CCCNC(=N)N)NC(=O)CNC(=O)[C@H](CCCNC(=N)N)NC(=O)CNC(=O)[C@H](CCCNC(=N)N)NC(=O)CNC(=O)[C@H](CCCNC(=N)N)NC(=O)CNC(=O)[C@H](CCCNC(=N)N)NC(=O)CNC(=O)[C@H](CCCNC(=N)N)NC(=O)CNC(=O)[C@H](CCCNC(=N)N)NC(=O)CNC(=O)[C@H](CCCNC(=N)N)NC(=O)CNC(=O)[C@H](CCCNC(=N)N)NC(=O)CN)C(=O)O [GR25] | 2.85 ± 0.51 |  | 
2 | N=C(N)NCCC[C@H](NC(=O)[C@@H]1CCCN1C(=O)[C@H](CCCNC(=N)N)NC(=O)[C@@H]1CCCN1C(=O)[C@H](CCCNC(=N)N)NC(=O)[C@@H]1CCCN1C(=O)[C@H](CCCNC(=N)N)NC(=O)[C@@H]1CCCN1C(=O)[C@H](CCCNC(=N)N)NC(=O)[C@@H]1CCCN1C(=O)[C@H](CCCNC(=N)N)NC(=O)[C@@H]1CCCN1C(=O)[C@H](CCCNC(=N)N)NC(=O)[C@@H]1CCCN1C(=O)[C@H](CCCNC(=N)N)NC(=O)[C@@H]1CCCN1C(=O)[C@H](CCCNC(=N)N)NC(=O)[C@@H]1CCCN1C(=O)[C@H](CCCNC(=N)N)NC(=O)[C@@H]1CCCN1C(=O)[C@H](CCCNC(=N)N)NC(=O)[C@@H]1CCCN1C(=O)[C@H](CCCNC(=N)N)NC(=O)[C@@H]1CCCN1C(=O)[C@H](CCCNC(=N)N)NC(=O)[C@@H]1CCCN1C(=O)[C@H](CCCNC(=N)N)NC(=O)[C@@H]1CCCN1C(=O)[C@H](CCCNC(=N)N)NC(=O)[C@@H]1CCCN1C(=O)[C@H](CCCNC(=N)N)NC(=O)[C@@H]1CCCN1C(=O)[C@H](CCCNC(=N)N)NC(=O)[C@@H]1CCCN1C(=O)[C@H](CCCNC(=N)N)NC(=O)[C@@H]1CCCN1C(=O)[C@H](CCCNC(=N)N)NC(=O)[C@@H]1CCCN1C(=O)[C@H](CCCNC(=N)N)NC(=O)[C@@H]1CCCN1C(=O)[C@H](CCCNC(=N)N)NC(=O)[C@@H]1CCCN1C(=O)[C@H](CCCNC(=N)N)NC(=O)[C@@H]1CCCN1C(=O)[C@H](CCCNC(=N)N)NC(=O)[C@@H]1CCCN1C(=O)[C@H](CCCNC(=N)N)NC(=O)[C@@H]1CCCN1C(=O)[C@H](CCCNC(=N)N)NC(=O)[C@@H]1CCCN1)C(=O)O [PR25] | 3.64 ± 1.16 |  | 
3 | B1 |  | 1840 | 
4 | B2 |  | 430 | 
5 | SQAMDDLMLSPDDIEQWFTED (domain or fragment, UniProt P04637 37-57, looked up, human p53, amino acids 37 to 57 (TAD2 construct); 15N-labelled for NMR, unlabelled for fluorescence polarisation; source: E. coli BL21-DE3 Star, purified (lysis in 6 M urea, Ni-NTA, TEV cleavage, second Ni-NTA, SEC on Superdex Peptide)) [p53^TAD2 (human p53 transactivation domain 2, amino acids 37 to 57)] |  |  | Kd [3]: 2850 nM; Kd [4]: 3.64 µM
